Source: US20240294670A1 (University of Texas, published 2024)

Key:
[1] = target: T1, Q5FW97_MOUSE (mouse, UniProt Q5FW97 2-434); test: anti-His co-IP of rCHI3L1 from Kupffer cell lysate, MS; listed under 'proteins bound to CHI3L1'
T1 construct: also called tr|Q5FW97|Q5FW97_MOUSE
Outline: (§1)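 Kupffer cells from WT mice 3 h after APAP were incubated with His-tagged rCHI3L1; lysate immunoprecipitated with anti-His antibody and the pulled-down fraction identified by LC/MS.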

[2] = target: T2, Q3UA81_MOUSE (mouse, UniProt Q3UA81 2-462); test: as above
T2 construct: also called tr|Q3UA81|Q3UA81_MOUSE
T2 sequence: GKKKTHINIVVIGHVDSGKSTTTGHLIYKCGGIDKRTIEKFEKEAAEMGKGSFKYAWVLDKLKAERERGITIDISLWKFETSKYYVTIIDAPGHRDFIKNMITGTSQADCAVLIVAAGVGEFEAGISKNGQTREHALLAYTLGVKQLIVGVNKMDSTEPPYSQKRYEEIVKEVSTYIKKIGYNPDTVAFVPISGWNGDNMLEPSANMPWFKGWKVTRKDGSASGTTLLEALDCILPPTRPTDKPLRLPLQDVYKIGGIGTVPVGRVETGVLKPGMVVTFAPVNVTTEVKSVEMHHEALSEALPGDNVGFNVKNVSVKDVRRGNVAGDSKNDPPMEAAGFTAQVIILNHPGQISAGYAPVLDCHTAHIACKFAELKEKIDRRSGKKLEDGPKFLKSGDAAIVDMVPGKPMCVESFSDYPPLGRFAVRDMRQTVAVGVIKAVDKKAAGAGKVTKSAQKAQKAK
Outline: as §1

T1 sequence (Q5FW97 entry or part of it limits assumed): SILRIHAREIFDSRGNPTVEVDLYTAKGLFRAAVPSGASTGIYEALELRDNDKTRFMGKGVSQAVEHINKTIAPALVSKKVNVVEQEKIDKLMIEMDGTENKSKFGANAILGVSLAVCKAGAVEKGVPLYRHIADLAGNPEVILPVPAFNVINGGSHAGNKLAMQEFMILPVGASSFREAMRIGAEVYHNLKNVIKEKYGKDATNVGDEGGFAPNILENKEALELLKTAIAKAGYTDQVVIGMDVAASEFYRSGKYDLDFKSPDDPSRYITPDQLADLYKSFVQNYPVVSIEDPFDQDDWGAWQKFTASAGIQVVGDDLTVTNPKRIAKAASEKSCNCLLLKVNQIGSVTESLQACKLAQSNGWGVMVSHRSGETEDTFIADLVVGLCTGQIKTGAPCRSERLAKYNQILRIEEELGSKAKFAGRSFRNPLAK

B1: recombinant mouse CHI3L1 (ligand)
chain: not shown
notes: His-tagged; also called mCHI3L1; mChi3l1
binding result [1]: binds
binding result [2]: binds
